Reference: the domain aggregation screens of Martell et al. (2025)

assay: soluble fraction after stress (log2 fold change); higher = more stays soluble; pooled small domains, quantitative proteomics; conditions: stress: pH 4
Method in brief: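 Values are log2 fold changes, and higher ones mean more of the domain stayed soluble. Each fold change reflects the soluble amount of a domain after acid stress and is taken as a measure of aggregation propensity. The stress was pH 4, applied to pooled custom libraries of small protein domains analysed by high-throughput quantitative proteomics.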

Sequence	soluble fraction (log2)
HMDSTDSIIHYVRAHRSLEVKNLSFAEARFKKVVELEPNFARGWLGLGEVSILKNNFENASIYLDKALE	-0.505
HMNMAVELEDGTQIFVFSEDGEFAGKRAVIADEEGRPTEENAPAGTHTLRDGRSIVVGEGGVIESVVET	-0.708
HMSQTDQALRHLIREAWATLPQRQQQAVELAYYEGLPDTEIAARLNQPVEEVKTSIVLGMAHLREALHSY	-0.198
HMGRMSLDEAKAVILPIGEHKGHTMGEVLAIKPGLIDFYASQKFNSGKYPYLKEAAQVILENQG	0.173
HMEIEYFDDEELDAYKGRKSDSYTDEEAAQFAEVLYTMRPSEVKDWTASLTLRGISMPDQIKDEAIMLME	-0.984
HMSHKYKLTVPETGEGTRVDKFLSSALTELSRTRLKSLIEEGQVTLGGVKLTNPSHRVKSGDELNIEIPVP	0.0568
HMKPEQIELTFSGTTAMRLDKFLAENQPGLSRAKLQAIISSGSVEVNGKVITKQAFKLDPGDLVKALIPE	≥ 0.43
HMDIEITIPPEAKELDVSKILISGNIITDEQEFLDYLKQNNVAAFKDGNYKLNKNMTTEEIVNQIK	-1.2
HMKPGWEDIFRMNQIQLEDAVRTVNRDDTLAPTKKAYLIQNLLASRWIVGNQLQAQKDKTTE	-0.335
HMNETVTNQTVLDLLKEGFTSEEIIGAIENSSTRTITYDINFMRQLKAAGADVTLTTYLQKIAKKDM	-0.711
HMGKSPLDALSAREKEVLTYITRGVSINDIAAVLYLSPKTVSTHKTNLMQKLGIENNADLILFGVNHGLND	-0.897
HMINFSKNIISDTTSIKEAIEILNIISGRDNHILFVLNDKRQLIGTLSDGDVRRGMLASKTISQSVTEVM	0.0244
HMNPSFTMGTRIKEYIDAHYLEDLKLADIAEALHINLYYLSHTFKDLTGSSPMQYIIRRRIEE	-0.603
HMAERLQARIDAPGVRLDKALAETFPTLSRARLQALLADGAVTRDGQTVSNGSAKAQPGLYVVALPPVA	0.316
HMQRSVEDVFVQLRNGMDTYDMTQIEDALRILHGMELSTAQRDLLDKVQEAYNDLEYETGAALLAGFERIK	-0.981
HMFQRLPFSFANRYKMVLEYQHPERPPVLYYVEPLKAAAILEVSRVIKSGFTPQAIVSDEFEKKLTEAYQR	0.0565

Sequence	soluble fraction (log2)
HMLKDQSIAQLEKNLDDLKGLMRKMFGSSDVPKITKMISDIESSLANFNQSKANKLIVQTTNYISSKL	-0.0978
HMSQITEADYIPNTDKTWGELMEETGESLPNLVERYNNEMTKSNGKEQPQSIIQRIIEDYQMVS	-0.0864
HMVQDDLRELEGISTELLAKLADAGITNRDDLADLAIDELVAITGQSEDDAKALIMKAREHWFAGDA	-1.09
HMGPAYEKIVANGQTFYRYNVKKGEGLMAVSRTFNVSVNDILKYNPSAASGLKDGQELLIPVIDDA	-0.29
HMELNFEGFYRFVRDELNVDLNAYKEKQLKRRIATVMKSSGALTLEDYSRLIANDEVIRNKFLDYITI	-0.894
HMNPFLELTEREMDVLRLIAIGRNNQEIASELVISEKTVKTHITNIFSKLHFKDRTQAAAYAWQSGIVR	-1.07
HMSLPKVLVPTDITVSQLAKYLEVDAIAIVKKLFGLGVVASLNQRLENEQMQLLGQEFGKDIIFTEN	-0.318
HMSERVVEIDPSQLRPGLFIRLPSGWMNHPFLFNQFRINSAEQVEIIQKLGLKTVQYLPERSSTQALPRA	-0.644
HMDFSNVNFSQVSDSELDLLMRRASAQGYTQFDLLKIARAQGLTQAEIEKLDKRFKSAETVAYVAENA	0.0811
HMAVRTELLALPAGWHGDASRLSTALAALQGVREAVVIASEGVAYLKVHGHDWDRDGARELLQN	-0.199
HMTGIQDVPALETRRVGNTFFFDRATDVQVYDLQGRLLQQARKVTSVSIGHLQQGVYVLTDGRASVKVQ	-0.7
HMLPDLQKAIDTFLYEVDSRINTSFEELIDKLNSKEEAVAFFLALLEAVRWGFIKAEQESNSINIKK	-1.49
HMNMGEKIRSLIGQFGVTSEDLKNLSVANLLIRMNQEAGDSKTKGILASLLETVNKAGVGNLTPDALGIK	0.064
HMTFKDIMENYTISRIENTINSAVVFLDEINAYITIDKTQLPSNLRYDTDSKIMASQIPDDAKIKYFMIYW	-1.61
HMTGELEVTAAGLSPEKLLNLAAKNHITLSNVKRLSYTQLSFRIGPADYNRLKKLLPEGRYKLNVGSS	-0.0957
